Laboratory results as given in paper PMC9371724 (2022).

B1: …-1 (TCR)
alpha TRAV38-2/DV8 TRAJ39 CDR3: CAYRSANNAGNMLTF
beta TRBV6-5 TRBJ1-5 CDR3: CASRTSGGNQPQHF
B2: …-1 (TCR)
alpha TRAV27 TRAJ26 CDR3: CKYGQNFVF
beta TRBV19 TRBJ2-3 CDR3: CASSRPGLNTDTQYF
B3: TCR CAANLDNFNKFYF / CATSRGIQPNEKLFF (TCR)
alpha TRAV25 TRAJ21 CDR3: CAANLDNFNKFYF
beta TRBV15 TRBJ1-4 CDR3: CATSRGIQPNEKLFF
B4: …-1 (TCR)
alpha TRAV19 TRAJ45 CDR3: CALSEDAGGGADGLTF
beta TRBV12-3 TRBJ2-5 CDR3: CASRRHQQETQYF
B5: TCR CAVGATDSWGKFQF / CASSIDATGHSNQPQHF (TCR)
alpha TRAV8-3 TRAJ24 CDR3: CAVGATDSWGKFQF
beta TRBV19 TRBJ1-5 CDR3: CASSIDATGHSNQPQHF
B6: TCR CIVRVGTNMDSNYQLIW / CASSKSYNEQFF (TCR)
alpha TRAV26-1 TRAJ33 CDR3: CIVRVGTNMDSNYQLIW
beta TRBV19 TRBJ2-1 CDR3: CASSKSYNEQFF
B7: TCR CAGSSANQAGTALIF / CSARGGQGAPSPLHF (TCR)
alpha TRAV35 TRAJ15 CDR3: CAGSSANQAGTALIF
beta TRBV20-1 TRBJ1-6 CDR3: CSARGGQGAPSPLHF
B8: …-1 (TCR)
alpha TRAV21 TRAJ46 CDR3: CAVRPKEGSGDKLTF
beta TRBV2 TRBJ2-2 CDR3: CASSESGRGPGELFF
B9: TCR CIVRVLTNQGGKLIF / CSAGSGLGGYNEQFF (TCR)
alpha TRAV26-1 TRAJ23 CDR3: CIVRVLTNQGGKLIF
beta TRBV20-1 TRBJ2-1 CDR3: CSAGSGLGGYNEQFF
B10: …-1 (TCR)
alpha TRAV8-4 TRAJ9 CDR3: CAVNGGFKTIF
beta TRBV6-1 TRBJ2-1 CDR3: CASRDRNQYNEQFF
B11: TCR CAAFENVLHC / CASSERPYPGETQYF (TCR)
alpha TRAV13-1 TRAJ35 CDR3: CAAFENVLHC
beta TRBV6-1 TRBJ2-5 CDR3: CASSERPYPGETQYF
B12: …-1 (TCR)
alpha TRAV20 TRAJ52 CDR3: CAVQAPGTSYGKLTF
beta TRBV24-1 TRBJ2-3 CDR3: CATSVGTSGYTQYF
B13: TCR CATDGGGIGAGSYQLTF / CATSRGGSPPYEQYF (TCR)
alpha TRAV17 TRAJ28 CDR3: CATDGGGIGAGSYQLTF
beta TRBV15 TRBJ2-7 CDR3: CATSRGGSPPYEQYF
B14: TCR CVHNAGNMLTF / CASSFQGLSTDTQYF (TCR)
alpha TRAV25 TRAJ39 CDR3: CVHNAGNMLTF
beta TRBV12-3 TRBJ2-3 CDR3: CASSFQGLSTDTQYF
B15: TCR821 (TCR)
alpha TRAV26-1 TRAJ23 CDR3: CIVMLTTNQGGKLIF
beta TRBV19 TRBJ2-4 CDR3: CASSPGLAGGGSIQYF
B16: TCR CAAPGANNLFF / CASSQPHRTSVTGELFF (TCR)
alpha TRAV13-1 TRAJ36 CDR3: CAAPGANNLFF
beta TRBV4-2 TRBJ2-2 CDR3: CASSQPHRTSVTGELFF
B17: …-1 (TCR)
alpha TRAV10 TRAJ26 CDR3: CVVSPTGGQNFVF
beta TRBV6-2 TRBJ2-6 CDR3: CASSYWGLGANVLTF
B18: TCR CIASGTYKYIF / CASSKGETGTQWSYEQYF (TCR)
alpha TRAV26-1 TRAJ40 CDR3: CIASGTYKYIF
beta TRBV4-2 TRBJ2-7 CDR3: CASSKGETGTQWSYEQYF
B19: TCR538 (TCR)
alpha TRAV4 TRAJ42 CDR3: CLVGAPSLYGGSQGNLIF
beta TRBV7-8 TRBJ2-1 CDR3: CASNPAGAVSYNEQFF
B20: TCR CATVGYNTDKLIF / CASSQGQAATNEKLFF (TCR)
alpha TRAV17 TRAJ34 CDR3: CATVGYNTDKLIF
beta TRBV4-3 TRBJ1-4 CDR3: CASSQGQAATNEKLFF
B21: …-1 (TCR)
alpha TRAV26-2 TRAJ41 CDR3: CILRDSNSGYALNF
beta TRBV7-8 TRBJ1-5 CDR3: CASSSGTHRSPQHF
B22: …-1 (TCR)
alpha TRAV2 TRAJ40 CDR3: CAVEDRDSGTYKYIF
beta TRBV18 TRBJ2-1 CDR3: CASSPSRGAPEYNEQFF
B23: …-1 (TCR)
alpha TRAV38-2/DV8 TRAJ39 CDR3: CAYRSFNNAGNMLTF
beta TRBV28 TRBJ1-6 CDR3: CASTETGSNSPLHF
B24: TCR CAAPGANNLFF / CASSGTGGQGYNEQFF (TCR)
alpha TRAV13-1 TRAJ36 CDR3: CAAPGANNLFF
beta TRBV2 TRBJ2-1 CDR3: CASSGTGGQGYNEQFF
B25: TCR CATGSYNTDKLIF / CASSPGLAGGTGELFF (TCR)
alpha TRAV17 TRAJ34 CDR3: CATGSYNTDKLIF
beta TRBV4-3 TRBJ2-2 CDR3: CASSPGLAGGTGELFF
B26: …-1 (TCR)
alpha TRAV17 TRAJ54 CDR3: CATDAAGAQKLVF
beta TRBV19 TRBJ2-1 CDR3: CASSILAGVYNEQFF
B27: TCR CASAYTGTASKLTF / CASSIDLGGRADGGYTF (TCR)
alpha TRAV17 TRAJ44 CDR3: CASAYTGTASKLTF
beta TRBV19 TRBJ1-2 CDR3: CASSIDLGGRADGGYTF
B28: TCR CAVQELARLMF / CASSVEGYSSPLHF (TCR)
alpha TRAV20 TRAJ31 CDR3: CAVQELARLMF
beta TRBV6-1 TRBJ1-6 CDR3: CASSVEGYSSPLHF
B29: TCR766 (TCR)
alpha TRAV17 TRAJ34 CDR3: CATASYNTDKLIF
beta TRBV4-3 TRBJ1-5 CDR3: CASSQGATGGSNQPQHF
B30: TCR867 (TCR)
alpha TRAV17 TRAJ34 CDR3: CATDAYNTDKLIF
beta TRBV4-3 TRBJ1-3 CDR3: CASSQGRTASGNTIYF
B31: …-1 (TCR)
alpha TRAV9-2 TRAJ4 CDR3: CALPSLSGGYNKLIF
beta TRBV7-8 TRBJ1-3 CDR3: CASSLAGNGNTIYF
B32: …-1 (TCR)
alpha TRAV9-2 TRAJ8 CDR3: CALSEGSTGFQKLVF
beta TRBV7-8 TRBJ1-3 CDR3: CASSVAGNGNTIYF
B33: …-1 (TCR)
alpha TRAV5 TRAJ8 CDR3: CAEMDTGFQKLVF
beta TRBV6-5 TRBJ1-1 CDR3: CASSGQGSTEAFF
B34: TCR CATDSYNTDKLIF / CASSQGAGAQTYYGYTF (TCR)
alpha TRAV17 TRAJ34 CDR3: CATDSYNTDKLIF
beta TRBV4-3 TRBJ1-2 CDR3: CASSQGAGAQTYYGYTF
B35: TCR CIVSPHGSGNTGKLIF / CASSIGARGQLFF (TCR)
alpha TRAV26-1 TRAJ37 CDR3: CIVSPHGSGNTGKLIF
beta TRBV19 TRBJ1-4 CDR3: CASSIGARGQLFF
B36: TCR CATDAYNTDKLIF / CASSQGAVPAGNTIYF (TCR)
alpha TRAV17 TRAJ34 CDR3: CATDAYNTDKLIF
beta TRBV4-3 TRBJ1-3 CDR3: CASSQGAVPAGNTIYF
B37: TCR CVVRGQAGTALIF / CASSGHWNTEAFF (TCR)
alpha TRAV10 TRAJ15 CDR3: CVVRGQAGTALIF
beta TRBV19 TRBJ1-1 CDR3: CASSGHWNTEAFF
B38: …-1 (TCR)
alpha TRAV29/DV5 TRAJ48 CDR3: CAAKGGGNEKLTF
beta TRBV12-3 TRBJ1-3 CDR3: CASTPRVLQFSGNTIYF
B39: TCR CAVSRAGANNLFF / CASSQGLGPGLFNQPQHF (TCR)
alpha TRAV21 TRAJ36 CDR3: CAVSRAGANNLFF
beta TRBV4-3 TRBJ1-5 CDR3: CASSQGLGPGLFNQPQHF
B40: TCR CATDSYNTDKLIF / CASSQGLGPTNYGYTF (TCR)
alpha TRAV17 TRAJ34 CDR3: CATDSYNTDKLIF
beta TRBV4-3 TRBJ1-2 CDR3: CASSQGLGPTNYGYTF
B41: TCR CIVRVGTNQGGKLIF / CASSMGLALETQYF (TCR)
alpha TRAV26-1 TRAJ23 CDR3: CIVRVGTNQGGKLIF
beta TRBV19 TRBJ2-5 CDR3: CASSMGLALETQYF
B42: TCR100 (TCR)
alpha TRAV8-3 TRAJ24 CDR3: CAVVTTDSWGKFQF
beta TRBV19 TRBJ1-5 CDR3: CASSDSPTGHGNQPQHF
B43: TCR819 (TCR)
alpha TRAV17 TRAJ34 CDR3: CATAAYNTDKLIF
beta TRBV4-3 TRBJ1-2 CDR3: CASSQAMTGGSDYGYTF
B44: …-1 (TCR)
alpha TRAV8-6 TRAJ42 CDR3: CAVMGYGGSQGNLIF
beta TRBV4-3 TRBJ2-1 CDR3: CASSQELGVYNEQFF
B45: TCR CILRGGTNQGGKLIF / CSAEGQGAGNTIYF (TCR)
alpha TRAV26-2 TRAJ23 CDR3: CILRGGTNQGGKLIF
beta TRBV20-1 TRBJ1-3 CDR3: CSAEGQGAGNTIYF
B46: TCR512 (TCR)
alpha TRAV13-1 TRAJ23 CDR3: CAAPYNQGGKLIF
beta TRBV19 TRBJ1-5 CDR3: CASSIVRGLYSNQPQHF
B47: TCR CALGPGDNQGGKLIF / CASSLAQAPAGETQYF (TCR)
alpha TRAV9-2 TRAJ23 CDR3: CALGPGDNQGGKLIF
beta TRBV11-1 TRBJ2-5 CDR3: CASSLAQAPAGETQYF
B48: TCR CALSEAFPPLYNFNKFYF / CASSLFATSGKDTQYF (TCR)
alpha TRAV19 TRAJ21 CDR3: CALSEAFPPLYNFNKFYF
beta TRBV5-6 TRBJ2-3 CDR3: CASSLFATSGKDTQYF
B49: TCR806 (TCR)
alpha TRAV26-1 TRAJ33 CDR3: CIVRGGTNMDSNYQLIW
beta TRBV19 TRBJ1-6 CDR3: CASTGQGNSPLHF
B50: …-1 (TCR)
alpha TRAV21 TRAJ30 CDR3: CAVGDDKIIF
beta TRBV12-3 TRBJ1-1 CDR3: CASSSRSGLKAFF
B51: TCR872 (TCR)
alpha TRAV17 TRAJ34 CDR3: CATVGYNTDKLIF
beta TRBV4-3 TRBJ1-4 CDR3: CASSQGLGPTNEKLFF
B52: TCR CAVSEGRSNQGGKLIF / CASSSQGRENEQYF (TCR)
alpha TRAV8-6 TRAJ23 CDR3: CAVSEGRSNQGGKLIF
beta TRBV19 TRBJ2-7 CDR3: CASSSQGRENEQYF
B53: TCR CAASMSTNQGGKLIF / CSADRYAYEQYF (TCR)
alpha TRAV13-1 TRAJ23 CDR3: CAASMSTNQGGKLIF
beta TRBV20-1 TRBJ2-7 CDR3: CSADRYAYEQYF
B54: TCR CATVAYNTDKLIF / CASSPGRTGGTYYGYTF (TCR)
alpha TRAV17 TRAJ34 CDR3: CATVAYNTDKLIF
beta TRBV4-3 TRBJ1-2 CDR3: CASSPGRTGGTYYGYTF
B55: …-1 (TCR)
alpha TRAV12-3 TRAJ39 CDR3: CATSYNNAGNMLTF
beta TRBV4-2 TRBJ2-5 CDR3: CASSQGTSGEETQYF
B56: …-1 (TCR)
alpha TRAV10 TRAJ41 CDR3: CVVSEGGYALNF
beta TRBV5-1 TRBJ1-5 CDR3: CASSDGTDSNQPQHF
B57: TCR839 (TCR)
alpha TRAV12-2 TRAJ37 CDR3: CAVNPPWSNTGKLIF
beta TRBV19 TRBJ2-5 CDR3: CASTRGVGTSGAKETQYF
B58: …-1 (TCR)
alpha TRAV2 TRAJ20 CDR3: CAVEDKHDYKLSF
beta TRBV9 TRBJ1-2 CDR3: CASSFKEGSNYGYTF
B59: TCR CAVSDRDSGNTPLVF / CASSQGDVNYGYTF (TCR)
alpha TRAV8-6 TRAJ29 CDR3: CAVSDRDSGNTPLVF
beta TRBV4-3 TRBJ1-2 CDR3: CASSQGDVNYGYTF

Molecular target: T1, HA69 peptide on HLA DQB1*06:02/DQA1*01:02 (DQ0602) (human)
T1 peptide: AMERNAGSGIIISDT
Assay: activation reporter or marker
B1: no recognition.
B2: no recognition.
B3: recognises.
B4: no recognition.
B5: recognises.
B6: recognises.
B7: recognises.
B8: no recognition.
B9: recognises.
B10: no recognition.
B11: recognises.
B12: no recognition.
B13: recognises.
B14: recognises.
B15: recognises.
B16: recognises.
B17: no recognition.
B18: recognises.
B19: recognises.
B20: recognises.
B21: no recognition.
B22: no recognition.
B23: no recognition.
B24: recognises.
B25: recognises.
B26: no recognition.
B27: recognises.
B28: recognises.
B29: recognises.
B30: recognises.
B31: no recognition.
B32: no recognition.
B33: no recognition.
B34: recognises.
B35: recognises.
B36: recognises.
B37: recognises.
B38: no recognition.
B39: recognises.
B40: recognises.
B41: recognises.
B42: recognises.
B43: recognises.
B44: no recognition.
B45: recognises.
B46: recognises.
B47: recognises.
B48: recognises.
B49: recognises.
B50: no recognition.
B51: recognises.
B52: recognises.
B53: recognises.
B54: recognises.
B55: no recognition.
B56: no recognition.
B57: recognises.
B58: no recognition.
B59: recognises.
